These results are taken from the supplement of paper PMC10567573.

To fix the notation:
B1: LCOR (parent)
chain: PCAGSTSLSHSPGCSSTQGNGRPG
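Note: lentivirally expressed fusions sorted by FACS into six bins by GFP to DsRed ratio, PSI derived from sequencing read proportions per bin multiplied by bin number.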

In the series the parent is B1. Put plainly: protein stability index of a GFP-peptide fusion (GPS, HEK-293T) (PSI 1-6); higher = more stable. The note with it: c terminus: a fixed tail appended.
With PCAGITSLSHSPGCSSTQGNGRPG [S5I], the protein stability index turned out to be 1.61.

Take NCAGSTSLSHSPGCSSTQGNGRPG [P1N]: the protein stability index was 4.33.

Consider CCAGSTSLSHSPGCSSTQGNGRPG [P1C], for which the protein stability index was determined as 4.16.

As to KCAGSTSLSHSPGCSSTQGNGRPG [P1K], the protein stability index was 4.35.

Turning to RCAGSTSLSHSPGCSSTQGNGRPG [P1R], the protein stability index stood at 3.63.

As to ECAGSTSLSHSPGCSSTQGNGRPG [P1E], the protein stability index is 3.77.

As for DCAGSTSLSHSPGCSSTQGNGRPG [P1D], the protein stability index came out at 4.08.

Consider MCAGSTSLSHSPGCSSTQGNGRPG [P1M], for which the protein stability index came to 3.39.

ICAGSTSLSHSPGCSSTQGNGRPG [P1I]: the protein stability index turned out to be 3.48.

For the variant PCAGSTSLSHSPGCSSTQGPGRPG [N20P], the protein stability index is 2.51.

As to PCAGSTSLSHSPGCSSTQGMGRPG [N20M], the protein stability index turned out to be 2.83.

For the variant PCAGSTSLSHSPGCSSTQGAGRPG [N20A], the protein stability index was 4.09.

In the case of PCAGSTSLSHSPGCSSTQGVGRPG [N20V], the protein stability index was determined as 3.58.

Consider PCAGSTSLEHSPGCSSTQGNGRPG [S9E], for which the protein stability index turned out to be 3.85.

As for PCAGSTSLTHSPGCSSTQGNGRPG [S9T], the protein stability index came out at 3.

Regarding PCAGSTSLSHCPGCSSTQGNGRPG [S11C], the protein stability index was determined as 1.94.

On to PCAGSTSLSHVPGCSSTQGNGRPG [S11V], for which the protein stability index was 2.86.

Regarding PCAGSTSLSHQPGCSSTQGNGRPG [S11Q], the protein stability index turned out to be 3.27.

Turning to PCAGSTSLSHEPGCSSTQGNGRPG [S11E], the protein stability index turned out to be 3.73.

With PCAGSTSLSHSPGCSSTQLNGRPG [G19L], the protein stability index was found to be 2.91.

Take PCAGSTSLSHSPGCSSTQSNGRPG [G19S]: the protein stability index is 3.84.

Turning to PCAGSTSLSHSPGCSSTQNNGRPG [G19N], the protein stability index turned out to be 2.94.

As for PCAGSTSLSHSPGCSSTQTNGRPG [G19T], the protein stability index came to 3.24.

Consider PCAGSTSLSHSPGCGSTQGNGRPG [S15G], for which the protein stability index is 2.49.

As to PCAGSTSLSHSPGCKSTQGNGRPG [S15K], the protein stability index is 2.39.

In the case of PCAGSTSLSHSPGCESTQGNGRPG [S15E], the protein stability index was 3.55.

With PCAGSTSLSHSPGCSSTTGNGRPG [Q18T], the protein stability index worked out at 3.37.

Take PCAGSTSLSHSPGCSSTMGNGRPG [Q18M]: the protein stability index is 3.01.

Regarding PCAGSTSLSHSPGCSSTVGNGRPG [Q18V], the protein stability index is 2.5.

As to PCAGSTSLSHSPGCSSTRGNGRPG [Q18R], the protein stability index came out at 3.01.

For PCAGSTSLSHSPGCSSTNGNGRPG [Q18N], the protein stability index amounted to 3.51.

Turning to PCAGSTILSHSPGCSSTQGNGRPG [S7I], the protein stability index stood at 1.92.

Regarding PCAGSTMLSHSPGCSSTQGNGRPG [S7M], the protein stability index amounted to 1.82.

In the case of PCAGSTDLSHSPGCSSTQGNGRPG [S7D], the protein stability index was determined as 4.82.

As for PCAGSTALSHSPGCSSTQGNGRPG [S7A], the protein stability index was 2.19.

Take PCAGSTSKSHSPGCSSTQGNGRPG [L8K]: the protein stability index was determined as 4.34.

With PCAGSTSISHSPGCSSTQGNGRPG [L8I], the protein stability index was 3.67.

Turning to PCAGSTSTSHSPGCSSTQGNGRPG [L8T], the protein stability index was determined as 4.15.

On to PCAGSTSRSHSPGCSSTQGNGRPG [L8R], for which the protein stability index amounted to 3.87.

Take PCAGSTSESHSPGCSSTQGNGRPG [L8E]: the protein stability index turned out to be 4.45.

Regarding PCAGSTSFSHSPGCSSTQGNGRPG [L8F], the protein stability index is 3.91.

As for PCAGSTSLSHSPGCSSTQGNGRQG [P23Q], the protein stability index worked out at 2.03.

Regarding PCAGSTSLSHSPGCSSTQGNGRHG [P23H], the protein stability index was determined as 3.88.

For the variant PCAGSTSLSHSPGCSSTQGNGRRG [P23R], the protein stability index came out at 3.22.

With PCAGSTSLSHSPGCSSTQGNGRDG [P23D], the protein stability index is 4.15.

With PCAGSTSLSHSPGCSSTQGNGRFG [P23F], the protein stability index stood at 2.46.

Regarding PCAGSTSLSHSPGCSSTQGNGRVG [P23V], the protein stability index was determined as 3.39.

Regarding PCAGSTSLSHSEGCSSTQGNGRPG [P12E], the protein stability index turned out to be 4.43.

With PCAGSTSLSHSHGCSSTQGNGRPG [P12H], the protein stability index was determined as 3.9.

Turning to PCAGSTSLSHSKGCSSTQGNGRPG [P12K], the protein stability index stood at 3.86.

In the case of PCAGSTSLSHSAGCSSTQGNGRPG [P12A], the protein stability index stood at 3.99.

For the variant PCAGSTSLSHSPGCSSWQGNGRPG [T17W], the protein stability index is 1.89.

As for PCAGSTSLSHSPGCSSVQGNGRPG [T17V], the protein stability index is 1.75.

PCATSTSLSHSPGCSSTQGNGRPG [G4T]: the protein stability index was found to be 3.71.

In the case of PCAGSTSLSHSPGCSSTQGNGRPT [G24T], the protein stability index was determined as 3.51.

Take PCAGSTSLSHSPGCSSTQGNGRPD [G24D]: the protein stability index came to 3.72.

With PCAGSTSLSHSPGCSETQGNGRPG [S16E], the protein stability index was determined as 3.18.

As to PCAGSTSLSHSPGCSGTQGNGRPG [S16G], the protein stability index was found to be 3.74.

In the case of PCAGSTSLSHSPGCSLTQGNGRPG [S16L], the protein stability index is 1.6.

With PCAGSTSLSHSPGCSPTQGNGRPG [S16P], the protein stability index is 4.1.

For the variant PCAGSTSLSHSPGCSRTQGNGRPG [S16R], the protein stability index stood at 4.34.

Take PCAGSFSLSHSPGCSSTQGNGRPG [T6F]: the protein stability index came to 2.91.

With PCAGSYSLSHSPGCSSTQGNGRPG [T6Y], the protein stability index was determined as 3.39.

Regarding PCAGSPSLSHSPGCSSTQGNGRPG [T6P], the protein stability index is 3.69.

For the variant PCAGSDSLSHSPGCSSTQGNGRPG [T6D], the protein stability index was determined as 4.35.

Take PCAGSVSLSHSPGCSSTQGNGRPG [T6V]: the protein stability index worked out at 3.9.

As for PCAGSWSLSHSPGCSSTQGNGRPG [T6W], the protein stability index came out at 2.84.

Consider PQAGSTSLSHSPGCSSTQGNGRPG [C2Q], for which the protein stability index worked out at 4.65.

PNAGSTSLSHSPGCSSTQGNGRPG [C2N]: the protein stability index turned out to be 4.74.

With PFAGSTSLSHSPGCSSTQGNGRPG [C2F], the protein stability index worked out at 3.99.

Turning to PCYGSTSLSHSPGCSSTQGNGRPG [A3Y], the protein stability index turned out to be 3.21.

Regarding PCIGSTSLSHSPGCSSTQGNGRPG [A3I], the protein stability index was found to be 4.1.

For PCGGSTSLSHSPGCSSTQGNGRPG [A3G], the protein stability index stood at 3.4.

For PCHGSTSLSHSPGCSSTQGNGRPG [A3H], the protein stability index amounted to 4.

On to PCMGSTSLSHSPGCSSTQGNGRPG [A3M], for which the protein stability index worked out at 3.63.

Consider PCAGSTSLSHSPGCSSTQGNGQPG [R22Q], for which the protein stability index was determined as 3.98.

As for PCAGSTSLSHSPGCSSTQGNGWPG [R22W], the protein stability index came out at 2.55.

Regarding PCAGSTSLSHSPGCSSTQGNGAPG [R22A], the protein stability index amounted to 4.1.

As to PCAGSTSLSHSPGCSSTQGNGTPG [R22T], the protein stability index stood at 3.46.

Consider PCAGSTSLSHSPGCSSTQGNGYPG [R22Y], for which the protein stability index is 4.14.

In the case of PCAGSTSLSHSPGCSSTQGNGDPG [R22D], the protein stability index was 4.3.

For PCAGSTSLSHSPGCSSTQGNGNPG [R22N], the protein stability index was determined as 4.2.

Consider PCAGSTSLSHSPGCSSTQGNDRPG [G21D], for which the protein stability index came to 3.95.

As to PCAGSTSLSHSPGQSSTQGNGRPG [C14Q], the protein stability index was determined as 5.14.

With PCAGSTSLSHSPGMSSTQGNGRPG [C14M], the protein stability index worked out at 4.53.

Consider PCAGSTSLSHSPGASSTQGNGRPG [C14A], for which the protein stability index was 4.12.

Take PCAGSTSLSHSPGSSSTQGNGRPG [C14S]: the protein stability index stood at 5.88.

On to PCAGSTSLSYSPGCSSTQGNGRPG [H10Y], for which the protein stability index stood at 4.3.

Consider PCAGSTSLSTSPGCSSTQGNGRPG [H10T], for which the protein stability index was 4.4.

Regarding PCAGSTSLSPSPGCSSTQGNGRPG [H10P], the protein stability index stood at 3.37.

For PCAGSTSLSRSPGCSSTQGNGRPG [H10R], the protein stability index came to 3.41.

As for PCAGSTSLSHSPHCSSTQGNGRPG [G13H], the protein stability index turned out to be 3.46.

Consider PCAGSTSLSHSPTCSSTQGNGRPG [G13T], for which the protein stability index is 2.72.

As to PCAGSTSLSHSPCCSSTQGNGRPG [G13C], the protein stability index amounted to 1.44.
